Patent US20190153108A1 (AbbVie / Abbott, published 2019)

Target: human Epidermal Growth Factor Receptor (huEGFR) over-expressed in mcl-1-/- mouse embryonic fibroblasts (human, UniProt P00533 25-1210)
Assay: cell-based or functional assay

Row | Binder | huEGFR^+ mcl-1^-/- MEF EC50 [nM]
1 | AbA-CZ (antibody, V domains shown, synthon CZ on reduced interchain Cys) VH: EVQLQESGPGLVKPSQTLSLTCTVSGYSISRDFAWNWIRQPPGKGLEWMGYISYNGNTRYQPSLKSRITISRDTSKNQFFLKLNSVTAADTATYYCVTASRGFPYWGQGTLVTVSS VL: DIQMTQSPSSMSVSVGDRVTITCHSSQDINSNIGWLQQKPGKSFKGLIYHGTNLDDGVPSRFSGSGSGTDYTLTISSLQPEDFATYYCVQYAQFPWTFGGGTKLEIKR | 0.3
2 | AbA-YY (antibody, V domains shown, synthon YY on reduced interchain Cys) VH: EVQLQESGPGLVKPSQTLSLTCTVSGYSISRDFAWNWIRQPPGKGLEWMGYISYNGNTRYQPSLKSRITISRDTSKNQFFLKLNSVTAADTATYYCVTASRGFPYWGQGTLVTVSS VL: DIQMTQSPSSMSVSVGDRVTITCHSSQDINSNIGWLQQKPGKSFKGLIYHGTNLDDGVPSRFSGSGSGTDYTLTISSLQPEDFATYYCVQYAQFPWTFGGGTKLEIKR | 460
3 | AbA-XW (antibody, V domains shown, synthon XW on reduced interchain Cys) VH: EVQLQESGPGLVKPSQTLSLTCTVSGYSISRDFAWNWIRQPPGKGLEWMGYISYNGNTRYQPSLKSRITISRDTSKNQFFLKLNSVTAADTATYYCVTASRGFPYWGQGTLVTVSS VL: DIQMTQSPSSMSVSVGDRVTITCHSSQDINSNIGWLQQKPGKSFKGLIYHGTNLDDGVPSRFSGSGSGTDYTLTISSLQPEDFATYYCVQYAQFPWTFGGGTKLEIKR | 32
4 | AbA-SE (antibody, V domains shown, synthon SE on reduced interchain Cys) VH: EVQLQESGPGLVKPSQTLSLTCTVSGYSISRDFAWNWIRQPPGKGLEWMGYISYNGNTRYQPSLKSRITISRDTSKNQFFLKLNSVTAADTATYYCVTASRGFPYWGQGTLVTVSS VL: DIQMTQSPSSMSVSVGDRVTITCHSSQDINSNIGWLQQKPGKSFKGLIYHGTNLDDGVPSRFSGSGSGTDYTLTISSLQPEDFATYYCVQYAQFPWTFGGGTKLEIKR | 105
5 | AbA-SR (antibody, V domains shown, synthon SR on reduced interchain Cys) VH: EVQLQESGPGLVKPSQTLSLTCTVSGYSISRDFAWNWIRQPPGKGLEWMGYISYNGNTRYQPSLKSRITISRDTSKNQFFLKLNSVTAADTATYYCVTASRGFPYWGQGTLVTVSS VL: DIQMTQSPSSMSVSVGDRVTITCHSSQDINSNIGWLQQKPGKSFKGLIYHGTNLDDGVPSRFSGSGSGTDYTLTISSLQPEDFATYYCVQYAQFPWTFGGGTKLEIKR | 5.9
6 | AbA-YG (antibody, V domains shown, synthon YG on reduced interchain Cys) VH: EVQLQESGPGLVKPSQTLSLTCTVSGYSISRDFAWNWIRQPPGKGLEWMGYISYNGNTRYQPSLKSRITISRDTSKNQFFLKLNSVTAADTATYYCVTASRGFPYWGQGTLVTVSS VL: DIQMTQSPSSMSVSVGDRVTITCHSSQDINSNIGWLQQKPGKSFKGLIYHGTNLDDGVPSRFSGSGSGTDYTLTISSLQPEDFATYYCVQYAQFPWTFGGGTKLEIKR | 6.4
7 | AbA-KZ (antibody, V domains shown, synthon KZ on reduced interchain Cys) VH: EVQLQESGPGLVKPSQTLSLTCTVSGYSISRDFAWNWIRQPPGKGLEWMGYISYNGNTRYQPSLKSRITISRDTSKNQFFLKLNSVTAADTATYYCVTASRGFPYWGQGTLVTVSS VL: DIQMTQSPSSMSVSVGDRVTITCHSSQDINSNIGWLQQKPGKSFKGLIYHGTNLDDGVPSRFSGSGSGTDYTLTISSLQPEDFATYYCVQYAQFPWTFGGGTKLEIKR | 152
8 | AbB-ZT (antibody, V domains shown, synthon ZT on reduced interchain Cys) VH: EVQLQESGPGLVKPSQTLSLTCTVSGYSISNDFAWNWIRQPPGKGLEWMGYISYKGNTRYQPSLKSRITISRDTSKNQFFLKLNSVTAADTATYYCVTASRGFPWWGQGTLVTVSS VL: DIQMTQSPSSMSVSVGDRVTITCHSSQDINSNIGWLQQKPGKSFKGLIYHGTNLDDGVPSRFSGSGSGTDYTLTISSLQPEDFATYYCVQYAQFPWTFGGGTKLEIKR | 8.9
9 | AbB-XW (antibody, V domains shown, synthon XW on reduced interchain Cys) VH: EVQLQESGPGLVKPSQTLSLTCTVSGYSISNDFAWNWIRQPPGKGLEWMGYISYKGNTRYQPSLKSRITISRDTSKNQFFLKLNSVTAADTATYYCVTASRGFPWWGQGTLVTVSS VL: DIQMTQSPSSMSVSVGDRVTITCHSSQDINSNIGWLQQKPGKSFKGLIYHGTNLDDGVPSRFSGSGSGTDYTLTISSLQPEDFATYYCVQYAQFPWTFGGGTKLEIKR | 0.65
10 | AbB-SE (antibody, V domains shown, synthon SE on reduced interchain Cys) VH: EVQLQESGPGLVKPSQTLSLTCTVSGYSISNDFAWNWIRQPPGKGLEWMGYISYKGNTRYQPSLKSRITISRDTSKNQFFLKLNSVTAADTATYYCVTASRGFPWWGQGTLVTVSS VL: DIQMTQSPSSMSVSVGDRVTITCHSSQDINSNIGWLQQKPGKSFKGLIYHGTNLDDGVPSRFSGSGSGTDYTLTISSLQPEDFATYYCVQYAQFPWTFGGGTKLEIKR | 39
11 | AbB-SR (antibody, V domains shown, synthon SR on reduced interchain Cys) VH: EVQLQESGPGLVKPSQTLSLTCTVSGYSISNDFAWNWIRQPPGKGLEWMGYISYKGNTRYQPSLKSRITISRDTSKNQFFLKLNSVTAADTATYYCVTASRGFPWWGQGTLVTVSS VL: DIQMTQSPSSMSVSVGDRVTITCHSSQDINSNIGWLQQKPGKSFKGLIYHGTNLDDGVPSRFSGSGSGTDYTLTISSLQPEDFATYYCVQYAQFPWTFGGGTKLEIKR | 7
12 | AbA-AAA (antibody, V domains shown, synthon AAA on reduced interchain Cys) VH: EVQLQESGPGLVKPSQTLSLTCTVSGYSISRDFAWNWIRQPPGKGLEWMGYISYNGNTRYQPSLKSRITISRDTSKNQFFLKLNSVTAADTATYYCVTASRGFPYWGQGTLVTVSS VL: DIQMTQSPSSMSVSVGDRVTITCHSSQDINSNIGWLQQKPGKSFKGLIYHGTNLDDGVPSRFSGSGSGTDYTLTISSLQPEDFATYYCVQYAQFPWTFGGGTKLEIKR | 220
13 | AbB-YG (antibody, V domains shown, synthon YG on reduced interchain Cys) VH: EVQLQESGPGLVKPSQTLSLTCTVSGYSISNDFAWNWIRQPPGKGLEWMGYISYKGNTRYQPSLKSRITISRDTSKNQFFLKLNSVTAADTATYYCVTASRGFPWWGQGTLVTVSS VL: DIQMTQSPSSMSVSVGDRVTITCHSSQDINSNIGWLQQKPGKSFKGLIYHGTNLDDGVPSRFSGSGSGTDYTLTISSLQPEDFATYYCVQYAQFPWTFGGGTKLEIKR | 3.3
14 | AbB-KZ (antibody, V domains shown, synthon KZ on reduced interchain Cys) VH: EVQLQESGPGLVKPSQTLSLTCTVSGYSISNDFAWNWIRQPPGKGLEWMGYISYKGNTRYQPSLKSRITISRDTSKNQFFLKLNSVTAADTATYYCVTASRGFPWWGQGTLVTVSS VL: DIQMTQSPSSMSVSVGDRVTITCHSSQDINSNIGWLQQKPGKSFKGLIYHGTNLDDGVPSRFSGSGSGTDYTLTISSLQPEDFATYYCVQYAQFPWTFGGGTKLEIKR | 55

More lines, now with the values ahead:

Row | huEGFR^+ mcl-1^-/- MEF EC50 [nM] | Binder
15 | 7.4 | AbB-ZZ (antibody, V domains shown, synthon ZZ on reduced interchain Cys) VH: EVQLQESGPGLVKPSQTLSLTCTVSGYSISNDFAWNWIRQPPGKGLEWMGYISYKGNTRYQPSLKSRITISRDTSKNQFFLKLNSVTAADTATYYCVTASRGFPWWGQGTLVTVSS VL: DIQMTQSPSSMSVSVGDRVTITCHSSQDINSNIGWLQQKPGKSFKGLIYHGTNLDDGVPSRFSGSGSGTDYTLTISSLQPEDFATYYCVQYAQFPWTFGGGTKLEIKR
16 | 33 | AbG-ZT (antibody, V domains shown, synthon ZT on reduced interchain Cys) VH: EVQLQESGPGLVKPSQTLSLTCTVSGYSISNDFAWNWIRQLPGKGLEWMGYISYKGNTRYQPSLKSRITISRDTSKNQFFLKLNSVTAADTATYYCVTASRGLPYWGQGTLVTVSS VL: DIQMTQSPSSMSVSVGDRVTITCHSSQDITYNIGWLQQKPGKSFKGLIYHGANLDDGVPSRFSGSGSGTDYTLTISSLQPEDFATYYCVQYDEFPWTFGGGTKLEIKR
17 | 68 | AbG-ZZ (antibody, V domains shown, synthon ZZ on reduced interchain Cys) VH: EVQLQESGPGLVKPSQTLSLTCTVSGYSISNDFAWNWIRQLPGKGLEWMGYISYKGNTRYQPSLKSRITISRDTSKNQFFLKLNSVTAADTATYYCVTASRGLPYWGQGTLVTVSS VL: DIQMTQSPSSMSVSVGDRVTITCHSSQDITYNIGWLQQKPGKSFKGLIYHGANLDDGVPSRFSGSGSGTDYTLTISSLQPEDFATYYCVQYDEFPWTFGGGTKLEIKR
18 | 19 | AbG-XW (antibody, V domains shown, synthon XW on reduced interchain Cys) VH: EVQLQESGPGLVKPSQTLSLTCTVSGYSISNDFAWNWIRQLPGKGLEWMGYISYKGNTRYQPSLKSRITISRDTSKNQFFLKLNSVTAADTATYYCVTASRGLPYWGQGTLVTVSS VL: DIQMTQSPSSMSVSVGDRVTITCHSSQDITYNIGWLQQKPGKSFKGLIYHGANLDDGVPSRFSGSGSGTDYTLTISSLQPEDFATYYCVQYDEFPWTFGGGTKLEIKR
19 | 24 | AbG-SE (antibody, V domains shown, synthon SE on reduced interchain Cys) VH: EVQLQESGPGLVKPSQTLSLTCTVSGYSISNDFAWNWIRQLPGKGLEWMGYISYKGNTRYQPSLKSRITISRDTSKNQFFLKLNSVTAADTATYYCVTASRGLPYWGQGTLVTVSS VL: DIQMTQSPSSMSVSVGDRVTITCHSSQDITYNIGWLQQKPGKSFKGLIYHGANLDDGVPSRFSGSGSGTDYTLTISSLQPEDFATYYCVQYDEFPWTFGGGTKLEIKR
20 | 7 | AbG-SR (antibody, V domains shown, synthon SR on reduced interchain Cys) VH: EVQLQESGPGLVKPSQTLSLTCTVSGYSISNDFAWNWIRQLPGKGLEWMGYISYKGNTRYQPSLKSRITISRDTSKNQFFLKLNSVTAADTATYYCVTASRGLPYWGQGTLVTVSS VL: DIQMTQSPSSMSVSVGDRVTITCHSSQDITYNIGWLQQKPGKSFKGLIYHGANLDDGVPSRFSGSGSGTDYTLTISSLQPEDFATYYCVQYDEFPWTFGGGTKLEIKR
21 | 1 | AbG-YG (antibody, V domains shown, synthon YG on reduced interchain Cys) VH: EVQLQESGPGLVKPSQTLSLTCTVSGYSISNDFAWNWIRQLPGKGLEWMGYISYKGNTRYQPSLKSRITISRDTSKNQFFLKLNSVTAADTATYYCVTASRGLPYWGQGTLVTVSS VL: DIQMTQSPSSMSVSVGDRVTITCHSSQDITYNIGWLQQKPGKSFKGLIYHGANLDDGVPSRFSGSGSGTDYTLTISSLQPEDFATYYCVQYDEFPWTFGGGTKLEIKR
22 | 96 | AbG-KZ (antibody, V domains shown, synthon KZ on reduced interchain Cys) VH: EVQLQESGPGLVKPSQTLSLTCTVSGYSISNDFAWNWIRQLPGKGLEWMGYISYKGNTRYQPSLKSRITISRDTSKNQFFLKLNSVTAADTATYYCVTASRGLPYWGQGTLVTVSS VL: DIQMTQSPSSMSVSVGDRVTITCHSSQDITYNIGWLQQKPGKSFKGLIYHGANLDDGVPSRFSGSGSGTDYTLTISSLQPEDFATYYCVQYDEFPWTFGGGTKLEIKR
